Source: article PMC9684555, “Structure- and computational-aided engineering of an oxidase to produce isoeugenol from a lignin-derived compound” (Nature Communications, 2022)

Key:
[1] = tested on: T1, COc1cc(CO)ccc1O; assay: purified protein; assay type: biochemical, Rhodococcus jostii; conditions: 50 mM KPi pH 7.5, O2 co-substrate, 0.05 µM enzyme
T1 construct: full length, 526 residues, C-terminal His6 tag (pBAD-EUGO-His6x), E. coli NEB10beta; covalent FAD; homodimer; mutants for crystals from His-SUMO fusion, tag cleaved

[2] = tested on: T2, CCCc1ccc(O)c(OC)c1; assay: purified protein; assay type: biochemical, Rhodococcus jostii; conditions: 50 mM KPi pH 7.5, 10% v/v DMSO, 10 µM to 1 mM substrate, O2 co-substrate
T2 construct: full length, 526 residues, C-terminal His6 tag (pBAD-EUGO-His6x), E. coli NEB10beta; covalent FAD; homodimer; mutants for crystals from His-SUMO fusion, tag cleaved

EUGO (eugenol oxidase) (Rhodococcus jostii RHA1; A423M/H434Y/I445D/S394V/S518P/S81H)
Km [1]: 7.1 ± 0.6 µM
kcat [1]: 0.075 ± 0.001 s⁻¹
Km ([2]; 1.0 µM enzyme): 3.4 ± 0.4 µM
kcat ([2]; 1.0 µM enzyme): 0.028 ± 0.0003 s⁻¹

EUGO (eugenol oxidase) (Rhodococcus jostii RHA1; A423M/H434Y/I445D/S518P/S81H)
Km [1]: 177.6 ± 15.8 µM
kcat [1]: 4.8 ± 0.2 s⁻¹

EUGO (eugenol oxidase) (Rhodococcus jostii RHA1; A423M/D151E/H434Y/I445D/S394V/S518P/S81H)
Km [1]: 2.9 ± 0.2 µM
kcat [1]: 0.15 ± 0.002 s⁻¹
Km ([2]; 1.0 µM enzyme): 3.0 ± 0.2 µM
kcat ([2]; 1.0 µM enzyme): 0.08 ± 0.002 s⁻¹

EUGO (eugenol oxidase) (Rhodococcus jostii RHA1; A423M/D151E/H434Y/I445D/Q425S/S394V/S518P/S81H)
Km [1]: 94.9 ± 7.8 µM
kcat [1]: 2.8 ± 0.07 s⁻¹
Km ([2]; 100 nM enzyme): 7.4 ± 0.4 µM
kcat ([2]; 100 nM enzyme): 0.43 ± 0.007 s⁻¹
